Measurements from patent publication US20220228157A1, “GENE EDITING IN DIVERSE BACTERIA” (priority 2019, published 2022).

How the values were obtained:
[1] = test system: Citrobacter freundii ATCC 8090; assay: Recombineering efficiency by LacZ screening; format: cell-based; conditions: pORTMAGE-based constructs
Text: (§1) To test the activity of PapRecT and CspRecT in these three organisms, the broad-host-range pORTMAGE system (Nyerges et al., Proc. Natl. Acad. Sci. U.S.A. 113, 2502-2507 (2016)) was built on as described above. For experiments in E. coli PapRecT or CspRecT was subcloned in place of Redβ into pORTMAGE311B (Szili et al., Antimicrob. Agents Chemother. AAC.00207-19 (2019) doi:10.1128/AAC.00207-19) (FIGS. 10A-10B; Addgene accession: #120418), which transiently disrupts MMR with EcMutL_E32K, and whose RSF1010 origin of replication and m-toluic-acid-based expression system allows the plasmid to be deployed over a broad range of bacterial hosts (Honda et al., Proc. Natl. Acad. Sci. U.S.A. 88, 179-183 (1991); Gawin et al., Microb. Biotechnol. 10, 702 (2017)). These same pORTMAGE-based constructs were used for testing in C. freundii and K. pneumoniae. […]
(§2) Oligos were designed to introduce I) premature STOP codons into lacZ for E. coli, K. pneumoniae, and C. freundii, or II) RpsL K43→R; GyrA T83→I; ParC S83→L; RpoB D521→V, or a premature STOP codon into nfxB for P. aeruginosa. […] After recovery overnight, cells were plated at empirically-determined dilutions to a density of 200-500 colonies per plate. […] In all cases, allelic-replacement frequencies were calculated by dividing the number of recombinant CFUs by the number of total CFUs. […]

[2] = test system: Klebsiella pneumoniae ATCC 10031; assay: Recombineering efficiency by LacZ screening; format: cell-based; conditions: pORTMAGE-based constructs
Text: as §1, §2

E. coli [3] = assay: Fifteen cycles of MAGE with pool of 15 oligos, editing efficiency by NGS; format: cell-based, Escherichia coli; conditions: 15 separate mutations, one week
Method: E. coli populations expressing either an efficient SSAP (SEQ ID NO: 157), an efficient SSAP/SSB pair (SEQ ID NO: 157/SEQ ID NO: 384), or the widely-used Redβ were taken through fifteen cycles of MAGE and transformed each cycle with a 10 μM pool comprising 15 unique oligos. Editing efficiency at each targeted locus was measured by NGS and averaged (FIG. 3).

E. coli [4] = assay: Editing efficiency by NGS, non-coding mismatch at a non-essential gene; format: cell-based, Escherichia coli; conditions: silent mismatch MAGE oligo, SEER plasmid system
Method: Top-performing SSAPs and SSAP/SSB pairs from experiments in E. coli, L. lactis, and M. smegmatis are shown in FIG. 2A, FIG. 2B and FIG. 2C, respectively. Bars in red are the proteins that had previously been reported in the literature. The proteins listed were found after ten rounds of selection for protein variants that enabled the introduction of an oligonucleotide that conferred a genomic edit that provided antibiotic resistance. Unbiased editing efficiency was tested in each case by introducing a non-coding base change at a non-essential gene and measuring the frequency of incorporation via next generation sequencing.
Their recombineering efficiency was tested against Redβ expressed off of its wild-type codons on the same plasmid system used for the SEER selections. […]
The efficiency of each SSAP or SSAP/SSB pair was measured by expressing them off of their host-specific plasmid in the naïve parent strain and running a recombineering cycle with an oligo that confers a 4-nucleotide non-coding mismatch in a non-essential gene. The allele was then amplified by PCR and editing efficiency was measured by next-generation sequencing.
To measure single locus editing, a recombineering cycle was run with an oligo that confers a single base pair non-coding mismatch in a non-essential gene. The allele was then amplified by PCR and editing efficiency was measured by NGS as described above. […]

B1: CspRecT: RecT SSAP (UniParc ID: UPI0001837D7F) from a phage of Collinsella stercoris (protein)
chain: MNQIVKFTDDSGLAVQVTPDDVRRYICENATEKEVGLFLQLCQTQRLNPFVKDAYLVKYGGAPASMITSYQVFNRRACRDANYDGIKSGVVVLRDGDVVHKRGAACYKKAGEELIGGWAEVRFKDGRETAYAEVALDDYSTGKSNWAKMPGVMIEKCAKAAAWRLAFPDTFQGMYAAEEMDQAQQPEQVRAQAEQPVDLQPIRELFKPYCEHFGITPAEGMTAVCGAVGAEGMHSMTEQQARRARAWMEEEMAAPAVEAEYEVVDEGEVF
modifications: Collinsella stercoris DSM 13279
In the case of B1, the “Editing performance in C. freundii” value [1] is reported as “optimal choice of protein” and the “Editing performance in K. pneumoniae” value [2] is reported as “optimal choice of protein”.

B2: Redβ: Redβ SSAP from Enterobacteria phage λ, SEQ ID NO: 474 (protein)
chain: MSTALATLAGKLAERVGMDSVDPQELITTLRQTAFKCDASDAQFIALLIVANQYGLNPWTKEIYAFPDKQNGIVPVVGVDGWSRIINENQQFDGMDFEQDNESCTCRIYRKDRNHPICVTEWMDECRREPFKTREGREITGPWQSHPKRMLRHKAMIQCARLAFGFAGIYDKDEAERIVENTAYTAERQPERDITPVNDETMQEINTLLIALDKTWDDDLLPLCSQIFRRDIRASSELTQAEAVKALGFLKQKATEQKVAA
modifications: Bacteriophage Lambda
In the case of B2, the “Editing efficiency, averaged over targeted loci” value (E. coli [3]) is reported as about 20%.

B3: PapRecT: SSAP from Pseudomonas aeruginosa, SEQ ID NO: 24, UniParc ID: UPI0001E9E6CB (protein, listed as Pseudomonas aeruginosa)
chain: MGTALTPLLTKFATRYEMGTTPEEVANTLKQTCFKGQVNDSQMVALLIVADQYKLNPFTKELYAFPDKNNGIVPVVGVDGWARIINENPQFDGMEFSMDQQGTECTCKIYRKDRSHAISATEYMAECKRNTQPWQSHPRRMLRHKAMIQCARLAFGFAGIYDQDEAERIVERDVTPAEQYEDVSEAICLIKDSPTMEDLQAAFSNAWKAYKTKGARDQLTAAKDQRKKELLDAPIDVEFEETGDDRAA
With B3 the “Efficiency of recombineering at ynfF by NGS” value (E. coli [4]) was 31%±2%.
